Consider 1 substance from patent US20240400652A1.

This assay addresses SARS-CoV-2 spike with Y453F (SARS-CoV-2) (UniProt P0DTC2). Briefly: cell-based or functional assay.

In turn, REGN10987 (antibody) showed a decrease in neutralization, live virus or pseudovirus (fold decrease) of 4.
